Reference: the supplement of paper PMC10567573

B1: S100A14 (parent)
chain: KIANLGSCNDSKLEFRSFWELIGE

Variants of: B1
Experiment: protein stability index of a GFP-peptide fusion (GPS, HEK-293T) (PSI 1-6); higher = more stable
Settings: c terminus: a fixed tail appended
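Further: lentivirally expressed fusions sorted by FACS into six bins by GFP to DsRed ratio, PSI derived from sequencing read proportions per bin multiplied by bin number.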

For KIANLGSCNDSKEEFRSFWELIGE, which protein stability index is on record?
The protein stability index was 1.71.

With KIANLGSCNDSKSEFRSFWELIGE as the variant, how does the protein stability index read?
Its protein stability index is 2.52.

For KIANLGSCNDSKPEFRSFWELIGE, which protein stability index is on record?
The protein stability index was 2.5.

For KIANLGSCNDSKVEFRSFWELIGE, which protein stability index is on record?
Its protein stability index is 1.83.

With KILNLGSCNDSKLEFRSFWELIGE as the variant, how does the protein stability index read?
The protein stability index was 1.09.

For KIINLGSCNDSKLEFRSFWELIGE, which protein stability index is on record?
Its protein stability index is 1.74.

Which protein stability index does the source give for KISNLGSCNDSKLEFRSFWELIGE here?
Its protein stability index is 1.66.

With KIYNLGSCNDSKLEFRSFWELIGE as the variant, how does the protein stability index read?
The protein stability index was 1.79.

Which protein stability index does the source give for KIKNLGSCNDSKLEFRSFWELIGE here?
Its protein stability index is 1.53.

With KIQNLGSCNDSKLEFRSFWELIGE as the variant, how does the protein stability index read?
The protein stability index was 1.98.

Which protein stability index does the source give for KIANLGSCNDSKLEFRSFHELIGE here?
The protein stability index was 2.74.

For KIANLGSCNDSKLEFRSFMELIGE, which protein stability index is on record?
The protein stability index was 1.79.

With KIANLGSCNDSKLEFRSFNELIGE as the variant, how does the protein stability index read?
The protein stability index was 2.71.

With KIANLGSCNDSKLEFRSFPELIGE as the variant, how does the protein stability index read?
Its protein stability index is 3.25.

With KIANLGSCNDSKLEFRSFLELIGE as the variant, how does the protein stability index read?
The protein stability index was 1.56.

For KIANLGSCNDSKLEFRSFSELIGE, which protein stability index is on record?
The protein stability index was 1.87.

With KIANLESCNDSKLEFRSFWELIGE as the variant, how does the protein stability index read?
The protein stability index was 2.06.

Which protein stability index does the source give for KIANLRSCNDSKLEFRSFWELIGE here?
Its protein stability index is 1.92.

With KIAFLGSCNDSKLEFRSFWELIGE as the variant, how does the protein stability index read?
Its protein stability index is 2.7.

Which protein stability index does the source give for KIAILGSCNDSKLEFRSFWELIGE here?
The protein stability index was 1.9.

With KIAELGSCNDSKLEFRSFWELIGE as the variant, how does the protein stability index read?
The protein stability index was 1.68.

For KIAVLGSCNDSKLEFRSFWELIGE, which protein stability index is on record?
Its protein stability index is 1.98.

For KIAALGSCNDSKLEFRSFWELIGE, which protein stability index is on record?
The protein stability index was 2.01.

With KIAMLGSCNDSKLEFRSFWELIGE as the variant, how does the protein stability index read?
The protein stability index was 1.64.

With AIANLGSCNDSKLEFRSFWELIGE as the variant, how does the protein stability index read?
Its protein stability index is 1.98.

Which protein stability index does the source give for WIANLGSCNDSKLEFRSFWELIGE here?
Its protein stability index is 3.31.

For SIANLGSCNDSKLEFRSFWELIGE, which protein stability index is on record?
The protein stability index was 2.19.

For HIANLGSCNDSKLEFRSFWELIGE, which protein stability index is on record?
The protein stability index was 1.61.

With IIANLGSCNDSKLEFRSFWELIGE as the variant, how does the protein stability index read?
The protein stability index was 1.79.

Which protein stability index does the source give for EIANLGSCNDSKLEFRSFWELIGE here?
The protein stability index was 1.84.

For RIANLGSCNDSKLEFRSFWELIGE, which protein stability index is on record?
The protein stability index was 1.59.

With KIANLGACNDSKLEFRSFWELIGE as the variant, how does the protein stability index read?
Its protein stability index is 1.51.

For KIANLGPCNDSKLEFRSFWELIGE, which protein stability index is on record?
The protein stability index was 2.5.

With KIANLGDCNDSKLEFRSFWELIGE as the variant, how does the protein stability index read?
Its protein stability index is 1.96.

Which protein stability index does the source give for KIANLGCCNDSKLEFRSFWELIGE here?
The protein stability index was 2.09.

For KIANLGECNDSKLEFRSFWELIGE, which protein stability index is on record?
Its protein stability index is 1.87.

With KIANLGYCNDSKLEFRSFWELIGE as the variant, how does the protein stability index read?
Its protein stability index is 1.83.

For KIANLGHCNDSKLEFRSFWELIGE, which protein stability index is on record?
Its protein stability index is 2.25.

With KIANLGVCNDSKLEFRSFWELIGE as the variant, how does the protein stability index read?
The protein stability index was 2.58.

With KIANLGQCNDSKLEFRSFWELIGE as the variant, how does the protein stability index read?
Its protein stability index is 1.68.

Which protein stability index does the source give for KIANLGSCNDSKLEFRSFWELIGH here?
The protein stability index was 2.8.

With KIANLGSCNDSKLEFRSFWELIGC as the variant, how does the protein stability index read?
The protein stability index was 1.53.

Which protein stability index does the source give for KIANLGSCNDSKLEFRSFWELIGP here?
The protein stability index was 1.7.

Which protein stability index does the source give for KIANLGSCNDSKLEFRSFWELIGT here?
The protein stability index was 1.9.

Which protein stability index does the source give for KIANLGSCNDSKLEFRSFWELIGG here?
Its protein stability index is 1.36.

Which protein stability index does the source give for KIANLGSCNDSKLEFRSFWELIGS here?
Its protein stability index is 1.78.

Which protein stability index does the source give for KIANLGSCNDSKLEFRSFWELIGD here?
Its protein stability index is 2.15.

For KIANLGSCNDSKLEFRSFWELIGL, which protein stability index is on record?
The protein stability index was 1.05.

Which protein stability index does the source give for KIANLGSCNDSKLEFRSFWELIGA here?
The protein stability index was 2.15.

For KIANLGSCNDSKLEFRSFWELIGM, which protein stability index is on record?
Its protein stability index is 2.27.

For KIANLGSCNDSKLEFRSFWELIGN, which protein stability index is on record?
Its protein stability index is 2.17.

For KIANLGSCNDSKLEFRSFWELIGR, which protein stability index is on record?
The protein stability index was 1.37.

Which protein stability index does the source give for KIANLGSCNDSVLEFRSFWELIGE here?
Its protein stability index is 2.47.

Which protein stability index does the source give for KIANLGSCNDSTLEFRSFWELIGE here?
Its protein stability index is 3.

With KIANLGSCNDSLLEFRSFWELIGE as the variant, how does the protein stability index read?
Its protein stability index is 1.72.

With KIANLGSCNDSSLEFRSFWELIGE as the variant, how does the protein stability index read?
Its protein stability index is 1.96.

Which protein stability index does the source give for KIANLGSCNDSALEFRSFWELIGE here?
The protein stability index was 2.02.

With KIANLGSCNDSFLEFRSFWELIGE as the variant, how does the protein stability index read?
Its protein stability index is 2.76.

Which protein stability index does the source give for KIANLGSCNDSKLEFRSFWELCGE here?
The protein stability index was 1.9.

With KIANLGSCNDSKLEFRSFWELMGE as the variant, how does the protein stability index read?
The protein stability index was 1.82.

Which protein stability index does the source give for KIANLGSCNDSKLEFRSFWELYGE here?
Its protein stability index is 2.

With KIANLGSCNDSKLEYRSFWELIGE as the variant, how does the protein stability index read?
The protein stability index was 1.63.

Which protein stability index does the source give for KIANLGSCNDSKLETRSFWELIGE here?
The protein stability index was 2.1.

With KIANLGSCNDSKLEIRSFWELIGE as the variant, how does the protein stability index read?
The protein stability index was 2.24.

For KIANLGSCNDSKLENRSFWELIGE, which protein stability index is on record?
The protein stability index was 2.22.

With KIANLGSCNDSKLEFRSFWEYIGE as the variant, how does the protein stability index read?
Its protein stability index is 2.23.

Which protein stability index does the source give for KIANLGSCNDSKLEFRSFWEGIGE here?
The protein stability index was 2.33.

Which protein stability index does the source give for KIANLGSCNDSKLEFRSFWENIGE here?
The protein stability index was 2.55.

With KIANLGSCNDSKLEFRSFWESIGE as the variant, how does the protein stability index read?
Its protein stability index is 1.86.

Which protein stability index does the source give for KIANLGSCNDSKLEFFSFWELIGE here?
Its protein stability index is 1.42.

Which protein stability index does the source give for KIANLGSCNDSKLEFNSFWELIGE here?
The protein stability index was 2.13.

For KIANLGSCNDSKLEFMSFWELIGE, which protein stability index is on record?
The protein stability index was 1.78.

With KIANLGSCNDSKLEFLSFWELIGE as the variant, how does the protein stability index read?
The protein stability index was 3.03.

With KIANLGSCNDSKLEFRSFWELIIE as the variant, how does the protein stability index read?
Its protein stability index is 1.86.

With KIANLGSCNDSKLEFRSFWELIWE as the variant, how does the protein stability index read?
Its protein stability index is 2.66.

With KIANLGSCNDSKLEFRSFWELIKE as the variant, how does the protein stability index read?
The protein stability index was 1.82.

Which protein stability index does the source give for KIANLGSCNDSKLEFRSFWELICE here?
The protein stability index was 1.73.

For KIANLGSCMDSKLEFRSFWELIGE, which protein stability index is on record?
The protein stability index was 1.97.

Which protein stability index does the source give for KIANLGSCYDSKLEFRSFWELIGE here?
Its protein stability index is 1.91.

With KIANLGSCNDSKLEFRSFWFLIGE as the variant, how does the protein stability index read?
Its protein stability index is 2.77.

With KIANLGSCNDSKLEFRSFWPLIGE as the variant, how does the protein stability index read?
The protein stability index was 1.64.

With KIANLGSCNDSKLEFRSFWCLIGE as the variant, how does the protein stability index read?
The protein stability index was 2.79.

Which protein stability index does the source give for KIANLGSCNDSKLEFRSFWKLIGE here?
Its protein stability index is 2.22.

With KIANLGSCNDSKLEFRSFWYLIGE as the variant, how does the protein stability index read?
The protein stability index was 2.73.

For KIANLGSCNDSKLEFRSFWGLIGE, which protein stability index is on record?
The protein stability index was 1.4.

Which protein stability index does the source give for KIANLGSWNDSKLEFRSFWELIGE here?
The protein stability index was 1.12.

For KIANLGSANDSKLEFRSFWELIGE, which protein stability index is on record?
Its protein stability index is 1.77.

With KIANLGSSNDSKLEFRSFWELIGE as the variant, how does the protein stability index read?
Its protein stability index is 1.99.

For KIANLGSMNDSKLEFRSFWELIGE, which protein stability index is on record?
The protein stability index was 1.51.

Which protein stability index does the source give for KIANLGSCNDVKLEFRSFWELIGE here?
The protein stability index was 2.42.

For KIANLGSCNDEKLEFRSFWELIGE, which protein stability index is on record?
The protein stability index was 1.68.

With KIANLGSCNDLKLEFRSFWELIGE as the variant, how does the protein stability index read?
The protein stability index was 1.52.

For KIANLGSCNDQKLEFRSFWELIGE, which protein stability index is on record?
Its protein stability index is 2.08.

For KIANLGSCNDYKLEFRSFWELIGE, which protein stability index is on record?
The protein stability index was 1.59.
